Laboratory results taken from patent US20190248902A1 (published 2019).

Experiments:
[1] = biological target: T1, recombinant, soluble human ASGR-1 (human, UniProt P07306 62-291); experiment: Octet BLI dissociation, pH 5.6 minus calcium
T1 construct: biotinylated in the binning assay; also called soluble huASGR-1; Soluble ASGR-1 (Amgen)
T1 sequence: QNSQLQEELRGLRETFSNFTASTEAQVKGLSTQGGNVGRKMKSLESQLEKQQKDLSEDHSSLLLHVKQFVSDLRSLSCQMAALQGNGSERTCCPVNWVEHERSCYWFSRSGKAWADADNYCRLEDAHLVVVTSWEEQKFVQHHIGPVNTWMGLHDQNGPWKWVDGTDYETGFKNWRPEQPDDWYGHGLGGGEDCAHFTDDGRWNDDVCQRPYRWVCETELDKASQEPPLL
Outline: (§1)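 Antibodies were captured on anti-human Fc biosensors, and soluble ASGR-1 (6 ug/ml) was associated for 2 min in Tris buffer containing 1 mM CaCl2 at pH 7.4, followed by 10 min dissociation under each test condition. The signal at the end of association was set as 100%. Percent ASGR-1 still bound after 1 min of dissociation was compared with the pH 7.4 plus calcium control, and >10% extra dissociation was scored as sensitive.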

[2] = biological target: T1, recombinant, soluble human ASGR-1; experiment: Octet BLI dissociation, pH 7.4 minus calcium
Outline: as §1

[3] = biological target: T1, recombinant, soluble human ASGR-1; experiment: Octet BLI dissociation, pH 5.6 plus calcium
Outline: as §1

B1: 149A1 (antibody, V domains shown)
VH: EVQLVESGGGLVQPGGSLRLSCAASGFTFSSYNMNWVRQAPGKGLEWVSYISRSSNTKHYADSVKGRFTISRDNAKNSLYLQMNSLRDEDTAVYYCARDRSGSYGYFYYYGLDVWGQGTTVTVSS
VL: not shown
notes: hybridoma mAb
- % Change Compared to pH 7.4 + Calcium [1]: 9%
- % Change Compared to pH 7.4 + Calcium [2]: 2%
- % Change Compared to pH 7.4 + Calcium [3]: -7%

B2: 146B6 (antibody, V domains shown)
VH: EVQLVESGGGLVQPGGSLRLSCAASGFTFSSYNMNWVRQAPGKGLEWVSYISRSSNTKHYADSVKGRFTISRDNAKNSLYLQMDSLRDEDTAVYYCARDRSGSYGYFYYYGLDVWGQGTTVTVSS
VL: not shown
notes: hybridoma mAb
- % Change Compared to pH 7.4 + Calcium [1]: 13%
- % Change Compared to pH 7.4 + Calcium [2]: 2%
- % Change Compared to pH 7.4 + Calcium [3]: -5%

B3: 146A8 (antibody, V domains shown)
VH: EVKLVESGGGLVQPGESLRLSCVASGFTFSNYNMNWVRQAPGKGLEWVSYISRSSNTKYYADSVRGRFTISRDNAKNSLYLQMNSLRDEDTAVYYCARDRSGSYGYFYYYGLDVWGQGTTVTVSS
VL: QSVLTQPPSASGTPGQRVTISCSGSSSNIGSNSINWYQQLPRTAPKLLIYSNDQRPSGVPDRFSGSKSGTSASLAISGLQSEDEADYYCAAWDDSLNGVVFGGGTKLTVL
notes: hybridoma mAb
- % Change Compared to pH 7.4 + Calcium [1]: 25%
- % Change Compared to pH 7.4 + Calcium [2]: 2%
- % Change Compared to pH 7.4 + Calcium [3]: -9%

B4: 218G4 (antibody, V domains shown)
VH: QVQLVESGGGVVQPGRSLRLSCAASGFTFSSYGLHWVRQAPGKGLEWVAVIWYDGSNKYYADSVKGRFTISRDNSKNTLYLQMNSLRVEDTAVYYCANWYYYYYGMDVWGQGTTVTVSS
VL: QSVLTQPPSVSAAPGQKVTISCSGSSSNIGNNYVSWYQQLPGTAPKLLLYDSNKRPSGIPARFSGSKSGTSATLGITGLQTGDEADYYCGTWDSSLNTVVFGGGTKLTVL
notes: hybridoma mAb
- % Change Compared to pH 7.4 + Calcium [1]: 0%
- % Change Compared to pH 7.4 + Calcium [2]: 1%
- % Change Compared to pH 7.4 + Calcium [3]: -4%

B5: 75G3 (antibody, V domains shown)
VH: QVQLQQWGAGLLKPSETLSLTCAVYGGSLSGSYWSWIRQPPGKGLEWIGEINLSGSTNYNPSLKSRVTISVDTSKSQFSLTLRSVTAADTAVYYCARDYGGLDYWGQGTLVTVSS
VL: EIVLTQSPGTLSLSPGERATLSCRARQNVDSSYLAWYQQKPGQAPRLLIYGASSRATGIPDRFSGSGSGTDFTLTISRLEPEDFAVFYCQQYERSPWTFGQGTKVEIK
notes: hybridoma mAb
- % Change Compared to pH 7.4 + Calcium [1]: 2%
- % Change Compared to pH 7.4 + Calcium [2]: -1%
- % Change Compared to pH 7.4 + Calcium [3]: -1%

B6: 74H7 (antibody, V domains shown)
VH: QVQLQQWGAGLLKPSEPLSLTCAVYGGSFSGPYWSWIRQPPGKGLEWIGEINHSGSTNYNPSLKSRVTISVDTSKNQFSLKLTSVTAADTAVYYCARDYGGLDVWGQGTTVTVSS
VL: ELVLTQSPGTLSLSPGERATLSCRASQNIYSSYLAWYQQKPGQAPRLLIYGASSRATGIPDRFSGSGSGTDFTLTISRLEPEDFAVYCCQQYESSPWTFGQGTKVEIK
notes: hybridoma mAb
- % Change Compared to pH 7.4 + Calcium [1]: 1%
- % Change Compared to pH 7.4 + Calcium [2]: 1%
- % Change Compared to pH 7.4 + Calcium [3]: -2%

B7: 85F7 (antibody, V domains shown)
VH: QVQLQQWGAGLLKPSEPLSLTCAVYGGSFSGPYWSWIRQPPGKGLEWIGEINHSGSTNYNPSLKSRVTISVDTSKNQFSLKLTSVTAADTAVYYCARDYGGLDVWGQGTTVTVSS
VL: EPVLTQSPGTLSLSPGERATLSCRASQNIYSNYLAWYQQKPGQAPRLLIYGASSRATGIPDRFSGSGSGTDFTLTISRLEPEDFAVYCCQQYESSPWTFGQGTKVEIK
notes: hybridoma mAb
- % Change Compared to pH 7.4 + Calcium [1]: 2%
- % Change Compared to pH 7.4 + Calcium [2]: 2%
- % Change Compared to pH 7.4 + Calcium [3]: -2%

B8: 74B2 (antibody, V domains shown)
VH: QVQLQQWGAGLLKPSEPLSLTCAVYGGSFSGPYWSWIRQPPGKGLEWIGEINHSGSTNYNPSLTSRVTISVDTSKNQFSLKLTSVTAADSAVYYCARDYGGLDVWGQGTTVTVSS
VL: ELVLTQSPGTLSLSPGERATLSCRASQNIYSSYLAWYQQKPGQAPRLLIYGASSRATGIPDRFSGSGSGTDFTLTISRLEPEDFAVYCCQQYESSPWTFGQGTKVEIK
notes: hybridoma mAb
- % Change Compared to pH 7.4 + Calcium [1]: -5%
- % Change Compared to pH 7.4 + Calcium [2]: 8%
- % Change Compared to pH 7.4 + Calcium [3]: -9%

B9: 213B3 (antibody, V domains shown)
VH: QVQLVESGGGVVQPGRSLRLSCAASGFTFSSYGMHWVRQAPGKGLEWVAVIWYDGSNKNYADSVKGRFTISRDNSKNTLYLQMNSLRAEDTAVYYCARDRTVGYDGFDIWGQGTMVTVSS
VL: DIQMTQSPSSLSASVGDRVTITCRASQGIGKYLAWFQQKPGKAPKSLISAASSVLSGVPSKFSGSGSGTDFTLTISSLQPEDFATYYCQKYDTYPFTFGPGTKVDIK
notes: hybridoma mAb
- % Change Compared to pH 7.4 + Calcium [1]: -3%
- % Change Compared to pH 7.4 + Calcium [2]: -1%
- % Change Compared to pH 7.4 + Calcium [3]: -7%

B10: 74G6 (antibody, V domains shown)
VH: QVQLVESGGGVVQPGRSLRLSCAASGFTFSSYGMHWVRQAPGKGLEWVAVIWYDGSNKNYADSVKGRFTISRDNSKNTLYLQMNSLRAEDTAVYYCARDGSYGYDGLDYWGQGTLVTVSS
VL: DIQMTQSPSSLSASVGDRVTITCRASQGIGKYLAWFQQKPGKAPKSLIYTTSSLQSGAPSKFSGSGSGTDFTLTISSLQYEDFATYYCQQYSNYPLTFGGGTKVEIN
notes: hybridoma mAb
- % Change Compared to pH 7.4 + Calcium [1]: -4%
- % Change Compared to pH 7.4 + Calcium [2]: 1%
- % Change Compared to pH 7.4 + Calcium [3]: -9%

B11: 219H1 (antibody, V domains shown)
VH: QVQLVESGGGVVQPGRSLRLSCAASGFTFSRYGMHWVRQAPGKGLEWVAVIWYDGSNKHYADSVKGRFTISRDNSKNTLYLQMNSLRGEDTAVYYCARDRGVGYNGMDVWGQGTTVTVSS
VL: DIQMTQSPSSQSASVGDRVTITCRASQGISNYLDWFQQKPGKAPKSLIYSASNLQSGVPSKFSGSRSGTDFTLTISSLQPEDFATYYCQHYSNYPLTFGGGTKVEIK
notes: hybridoma mAb
- % Change Compared to pH 7.4 + Calcium [1]: 1%
- % Change Compared to pH 7.4 + Calcium [2]: 2%
- % Change Compared to pH 7.4 + Calcium [3]: -3%

B12: 74C8 (antibody, V domains shown)
VH: QVQLVESGGGVVQPGRSLRLSCAASGFTFSSYGMHWVRQAPGKGLEWVAVIWYDGSNKNYADSVKGRFTISRDNSKNTLYLQMNSLRAEDTAVYYCARDGSYGYDGLDYWGQGTLVTVSS
VL: DIQMTQSPSSLSASVGDRVTITCRASQGIGKYLAWFQQKPGKAPKSLIYTTSNLQSGAPSKFSGSGSGTDFTLTISSLQYEDFATYYCQQYSNYPLTFGGGTKVEIN
notes: hybridoma mAb
- % Change Compared to pH 7.4 + Calcium [1]: -3%
- % Change Compared to pH 7.4 + Calcium [2]: 1%
- % Change Compared to pH 7.4 + Calcium [3]: -7%

B13: 198B9 (antibody, V domains shown)
VH: QVQLVESGGGVVQPGRSLRLSCAASGFTFSNYGMHWVRQAPGKGLEWVAIIWFDGSNKYYVDSVKGRFTISRDNSKNTLFLQMSSLRAEDTAVYYCAREWLQFRYYYGMDVWGQGTTVTVSS
VL: DIQMTQSPSSLSASVGDRVTITCRASQGIRKDLGWYQQKPGKAPKRLIYAASSLQSGVPSRFSGSGSGTEFTLTISSLQPEDFATYVCLQHYRYPFTFGPGTKVDFK
notes: hybridoma mAb
- % Change Compared to pH 7.4 + Calcium [1]: 11%
- % Change Compared to pH 7.4 + Calcium [2]: 3%
- % Change Compared to pH 7.4 + Calcium [3]: 2%

B14: 199A7 (antibody, V domains shown)
VH: QVQLVESGGGVVQPGRSLRLSCAASGFTFSNYGMHWVRQAPGKGLEWVAIIWFDGSNKYYADSVKGRFTISRDNSKNTLFLQMSSLRAEDTAVYYCAREWLQFRYYYGMDVWGQGTTVTVSS
VL: DIQMTQSPSSLSASVGDRVTITCRASQGIRKDLGWYQQKPGKAPKRLIYAASSLQSGVPSRFSGSGSGTEFTLTISSLQPEDFATYVCLQHYRYPFTFGPGTKVDFK
notes: hybridoma mAb
- % Change Compared to pH 7.4 + Calcium [1]: 10%
- % Change Compared to pH 7.4 + Calcium [2]: 1%
- % Change Compared to pH 7.4 + Calcium [3]: 1%
